Results taken from patent US20150017095A1 (AbbVie / Abbott, published 2015).

B1: AB020 anti-NGF parent antibody (antibody, human IgG1, V domains shown)
VH: QVQLQESGPGLVKPSETLSLTCTVSGFSLIGYDLNWIRQPPGKGLEWIGIIWGDGTTDYNSAVKSRVTISKDTSKNQFSLKLSSVTAADTAVYYCARGGYWYATSYYFDYWGQGTLVTVSS
VL: DIQMTQSPSSLSASVGDRVTITCRASQSISNNLNWYQQKPGKAPKLLIYYTSRFHSGVPSRFSGSGSGTDFTFTISSLQPEDIATYYCQQEHTLPYTFGQGTKLEIKR
B2: AB032 anti-IL-1b parent antibody (antibody, human IgG1, V domains shown)
VH: QVQLVESGGGVVQPGRSLRLSCAASGFTFSVYGMNWVRQAPGKGLEWVAIIWYDGDNQYYADSVKGRFTISRDNSKNTLYLQMNGLRAEDTAVYYCARDLRTGPFDYWGQGTLVTVSS
VL: EIVLTQSPDFQSVTPKEKVTITCRASQSIGSSLHWYQQKPDQSPKLLIKYASQSFSGVPSRFSGSGSGTDFTLTINSLEAEDAAAYYCHQSSSLPFTFGPGTKVDIKR

How the values were obtained:
[1] = target: T1, Recombinant Human β-NGF (human, UniProt P01138 122-239, limits assumed); assay: direct bind ELISA, antigen coated on plate
Method: (§1) Enzyme Linked Immunosorbent Assays to screen for antibodies that bind a desired target antigen were performed as follows. High bind ELISA plates (Corning Costar #3369, Acton, Mass.) were coated with 100 μL/well of 10 μg/ml of desired target antigen (R&D Systems, Minneapolis, Minn.) or desired target antigen extra-cellular domain/FC fusion protein (R&D Systems, Minneapolis, Minn.) or monoclonal mouse anti-polyHistidine antibody (R&D Systems # MAB050, Minneapolis, Minn.) in phosphate buffered saline (10×PBS, Abbott Bioresearch Center, Media Prep# MPS-073, Worcester, Mass.) overnight at 4° C. Plates were washed four times with PBS containing 0.02% Tween 20. Plates were blocked by the addition of 300 μL/well blocking solution (non-fat dry milk powder, various retail suppliers, diluted to 2% in PBS) for ½ hour at room temperature. Plates were washed four times after blocking with PBS containing 0.02% Tween 20.
(§2) Plates were washed 4 times with PBS containing 0.02% Tween 20.
(§3) One hundred microliters of enhanced TMB solution (Neogen Corp. #308177, K Blue, Lexington, Ky.) was added to each well and incubated for 10 minutes at room temperature. The reaction was stopped by the addition of 50 μL 1N sulphuric acid.

[2] = target: T1, Recombinant Human β-NGF; assay: BIACORE SPR, antibody captured, antigen in flow
Method: (§4) The BIACORE assay (Biacore, Inc, Piscataway, N.J.) determines the affinity of antibodies or DVD-Ig with kinetic measurements of on-rate and off-rate constants. […] All chemicals are obtained from Biacore® AB (Uppsala, Sweden) or otherwise from a different source as described in the text. For example, approximately 5000 RU of goat anti-mouse IgG, (Fcγ), fragment specific polyclonal antibody (Pierce Biotechnology Inc, Rockford, Ill.) diluted in 10 mM sodium acetate (pH 4.5) is directly immobilized across a CM5 research grade biosensor chip using a standard amine coupling kit according to manufacturer's instructions and procedures at 25 μg/ml. Unreacted moieties on the biosensor surface are blocked with ethanolamine. Modified carboxymethyl dextran surface in flowcell 2 and 4 is used as a reaction surface. Unmodified carboxymethyl dextran without goat anti-mouse IgG in flow cell 1 and 3 is used as the reference surface. For kinetic analysis, rate equations derived from the 1:1 Langmuir binding model are fitted simultaneously to association and dissociation phases of all eight injections (using global fit analysis) with the use of Biaevaluation 4.0.1 software. Purified antibodies or DVD-Ig are diluted in HEPES-buffered saline for capture across goat anti-mouse IgG specific reaction surfaces. Antibodies or DVD-Ig to be captured as a ligand (25 μg/m) are injected over reaction matrices at a flow rate of 5 μl/min. The association and dissociation rate constants, kₒₙ (M⁻¹s⁻¹) and koff (s⁻¹) are determined under a continuous flow rate of 25 μl/min. Rate constants are derived by making kinetic binding measurements at different antigen concentrations ranging from 10-200 nM. The equilibrium dissociation constant (M) of the reaction between antibodies or DVD-Igs and the target antigen is then calculated from the kinetic rate constants by the following formula: KD=koff/kₒₙ. Binding is recorded as a function of time and kinetic rate constants are calculated.

[3] = target: T1, Recombinant Human β-NGF; assay: BIACORE SPR, antibody captured, antigen in flow; Biacore, antibody captured, 25 C, HBS-EP
Method: as §4, with “For kinetic analysis, rate equations derived from the 1:1 Langmuir binding model are fitted simultaneously to association and dissociation phases of all eight injections (using global fit analysis) with the use of Biaevaluation 4.0.1 software. Purified antibodies or DVD-Ig are diluted in HEPES-buffered saline for capture across goat anti-mouse IgG specific reaction surfaces. Antibodies or DVD-Ig to be captured as a ligand (25 μg/m) are injected over reaction matrices at a flow rate of 5 μl/min.” left out, “Rate constants are derived by making kinetic binding measurements at different antigen concentrations ranging from 10-200 nM.” left out

[4] = target: T2, Recombinant Human IL-1β (human, UniProt P01584 117-269); assay: direct bind ELISA, antigen coated on plate
T2 construct: also called IL-1b; IL-1B
Method: as §1, §2, §3

[5] = target: T2, Recombinant Human IL-1β; assay: BIACORE SPR, antibody captured, antigen in flow
Method: as §4

T1 sequence (P01138 122-239 limits assumed): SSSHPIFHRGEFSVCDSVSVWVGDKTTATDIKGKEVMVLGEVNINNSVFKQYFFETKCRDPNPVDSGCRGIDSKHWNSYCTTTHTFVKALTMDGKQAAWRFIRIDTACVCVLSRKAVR

Binder | EC50 [1] [nM] | koff [2] [s⁻¹] | kon [2] [M⁻¹ s⁻¹] | Kd [3] [nM] | EC50 [4] [nM] | Kd [5] [nM]
B1 | 2.59 | 0.000112 | 261000 | 0.428 | – | –
B2 | – | – | – | – | 5.27 | 0.0131
